# Measured values from the DeepSol protein solubility set.
# Assay: soluble on expression in E. coli; label from the status in PepcDB or PDB records
row,Sequence,soluble on expression in E. coli
1,MGSDKIHHHHHHMMSRPIILGIVGDSAAGKTTLTRGIAQVLGPENVTLICTDDYHRYDRQQRAEIGITALHPDCNHLDIMQQHLSLLRTGQPILKPVYSHKTGSFEPPQYIKPNKFVIIEGLLGYSTRAARDCYDVKVYLAPPENLRAKWKVKRDTQKRGYTPEQVLAELEKREPDSEQFIRPQRQWSDIVVSFYPPHEDGDETNGHLNVRLVLRPTIPHPDFTSIINLTNGSSVSAIRLGLDRDMSKPVDVLEVDGHATLEQVNKLEHILCSDMPYLSSVCDRESNPELGKIAGTTGETLQSYPLALTQLIITYHMLKATQIYQ,not soluble
2,MGSDKIHHHHHHMNAIASRQRPLLPVREAVVTRVRGSAPTAVGASMCLLEDGSLLGTVGGGRMEYQVCQVLCSPRSEAPPALLSFTLGTADDQCCGGQVEICVLDVPLFFSELYQPGASRLYQRDSAGRLRLVAGMTRLGREIGSFDALTVLLRANAPGMDVEERHFALPAPHHQPLWIFGAGHVGRAIASMAHKLDFASSVFDQRPEWADPAAFPPEVTLVDTWTWADLQAPATDAMVLIMTYSHAMDYALLEHFIGEPLAYLGVIASRSKAARFSHALSRAGHDIPDYLHMPMGLPGMGKKPPEIAISVLAELLQLRHKKTDF,not soluble
3,MGSDKIHHHHHHMNAPLLLRNVGRGESTESGAVPPAVLPPVQPSPTTLQAPDHAARRRIAVFRALQLGDMLCAVPALRALREGEPDAHITLIGLPWVRDFASRFGSLIDDVMVFPGAPGFPERPYDAAALAAFHAEARARRFDLAIQLHGSGTLSNDVVRQLGARTIAGFCPTSAEAALANEHERLLPWPGGNEIERLLGLMRALGYPVVDAHLAFPLRPQDHAGWQRLAELHGLVGGEYICVHPGARMLSRRWPVERFADVALRLRKRWRIVVTGAPDEIMLTHRLCELIGGDVVNLTAATPLGELAALIAHARLLLCNDTGPSHIAAALDTPSVVVSCGGDSDRWAPLDATLHHVLASYPPCRPCNWQKCPIRHECATAITVDAVEAEALSLASRGHDHA,not soluble
4,MGSDKIHHHHHHMNAPNSQKILFAITKKSQQDGRSFPTIIRVLKRIGSCAPQGVFQMLHWKPEYLRAFVSERSPQKLFDIAVHLAQDLDMDYLGLNIRIQIATQTPRLYLYSNYPSEWIERYQRDDFYKQDPAANLSHSSTMPVLWTDELYKEAPQFREMACLYGLRHGWTQSLHDQQHNESQISVARPNGPIDEVELYDKAGSVQWLCHTLHAVLGEHHLNALCPPQPKMSERELEVLKWSAAGKTAADVASILSLSQSTVNFHIRSVITKTNAANKAGAIAIAALRGWI,not soluble
5,MGSDKIHHHHHHMNDFTTEILKTLANKGDLNELFRVHLEKAVNTLLKTELTAFLDYEKYDRIGFNTGNSRNGSYDRTVKTEYGELHLQIPRDRNGEFKQQTVPAYRRTNDTLEETVIHLFRKGITMSEIADLIEKMYGHHYTPQTMSNITKSFTEEVTAFKGRELHDRYAAIYMDATYIPLKRKTVAKEAIHIAVGIRPDGSKEVLSYAIAPTESITIWEEILLDLQERGLKNVLLFITDGLKGMVGAISRFYPKARFQHCCVHVSRNISHKVRVDDRKEVCDDFKMVYQTSSKKVALEARGAFAEKWKTSYPKVVESILSNDHLLTFYDFPLAIRKSIYSTNLIESFNKQIKKYSHRKEQFQNEESMERFLVSSFDTYNQKFLGRSHKGFQQAEGELEQMLSQLIEN,not soluble
6,MGSDKIHHHHHHMNFGYWYYREYFNTIKLNSEGIVTNFSTFNKGKNDKLIKGATLPPCDKENDIKDVTGFELKTCYPGLLCGVGYHHEINKPADEKGKKVEGDKEDDAPEVYNLGMYFDYTSGLPVIPGSSIKGMLRSAIEEWDFLADYELNNGVTREEIIEKVFVGKEYSIYDRDIFLDAIPIRVDNTLFGEDYITHHPNPLQNPNPVRFLRVEPGVTYQFRFILKDHGEKLTVDFRTKLFKAIICTFGLGAKTNVGYGQFVEP,not soluble
7,MGSDKIHHHHHHMNIAMFSDTYAPQINGVATSIRVYKKKLTERGHKVVVVAPSAPEEEKDVFVVRSIPFPFEPQHRISIASTKNILEFMRENNVQIIHSHSPFFIGFKALRVQEEMGLPHVHTYHTLLPEYRHYIPKPFTPPKRLVEHFSAWFCNMTNVVIAPTEDIKRELESYGVKRPIEVLPTGIEVEKFEVEAPEELKRKWNPEGKKVVLYAGRIAKEKNLDFLLRVFESLNAPGIAFIMVGDGPEREEVEEFAKEKGLDLKITGFVPHDEIPLYYKLGDVFVFASKTETQGLVLLEALASGLPVVALKWKGVKDVLKNCEAAVLIEEENERLFAEKIKHILKNDRLREELSTKGREFVRKEWSVDRFVQRLEEIYTRAIEEGPVEINTSLMIKEFVKFEKLKEFFSKIEDRIWR,not soluble
8,MGSDKIHHHHHHMNIFQQLEHSKAPAAVRLVMVIDYIAKRDEASFTEICTDLSIPKSSVHHLLEVLVVTQLLRQRADGRYVLGLRLFELGGLVIKNIDLRKDTINFMHELVKETELTCHLGIMDGDNGFFLSKVESPKAIVKTSWEGKKIVFNRMSLGKVLVAWLPQERIESLIADCSFEYLTPRTITNKDDFLQHLKTVKEQGWAIDDGEDIEEICCMAAPIFNQNGDVIAAIGVNGMQSQYANGKKEKHLASLIKTSKAITAHINSRNIDIR,not soluble
9,MGSDKIHHHHHHMNISTIVSNLKDLILEVRAPYDLEITGVSNHSSKVKKGDLFICRRGEKFDSHEIIPEVMEKGAVAVVVEREIDLDFPYIQVFDSRYFEAKVASLFFEDPWKDVLTFGVTGTNGKTTTTMMIYHMLTSLGERGSVLTTAVKRILGNSYYDDITTPDAITILSAMKENREGGGKFFALEVSSHALVQQRVEGVRFDVGIFTNISRDHLDFHGTFENYLKAKLHLFDLLKDDGVAVLNESLADAFNRKSRKITFGTSKNADYRLGNIEVSWEGTQFVLETPDGLLKVFTRAIGDFNAYNAAAAIAALHQLGYDPKDLASSLETFTGVEGRFEVVRGAKKIGLNVVVDFAHSPDALEKLLKNVRKISQGRVIVVFGAGGNSDRGKRPMMSEVASKLADVVILTTDDPRGEDPEQIMEDLIKGIDKRKPYLVLFDRREAIETALTIANRGDSVVIAGRGHERYQIIDEEKKVPFQDREVVEEIIRDKLKGRKYAQ,not soluble
10,MGSDKIHHHHHHMNKDFTFTIKSSCFDENYNPSENTRITTNFANLARGKSRQENLRNTLVMMDNRFNTLAYWDNPKANRYSVELEIISVEIDIEGNGDTFPAIEILKTNIVDKKTNERIEGIVGNNFSSYVRDYDFSVLLPEHNKSHPGFSTPDNFGDLHGKLFKCFTNSKFYKDNFNKQPVICLSVSSKNTYHRTGNQHPVLGIEYQQNEPSLTDHYFERMGLQARYFMPANSVAPLAFYFSGDLLNDYTNLELISTISTMETFQKIYRPEIYNANSAAGQYYQPNLNNQDHSLTKIVYDRVERSQLAIEQGKFTEEHFIKPYKNILEQWSAHYAR,not soluble
11,MGSDKIHHHHHHMNKELETLIMSAVDLPTIPVVATKVIELIEQEDVTIEKLATAVSSDPAVAARILKLSNSAYYGCQRQINTLSAAIMLLGFKTLKSLVIAASLKQLNRRFGLTEKMLWEHSVGAALAGRVIATQGRFINEETGFLVGLFHDLGKTIMSNRDPQKFQGVMMRCYNEGIPFAEAERSVYPYSHAEVGALVIRKWNFPESLSTAIMHHHQFGSAPITDQYDLFLTATASLANKFCKKLGIGDRDADDDLNLTNAPEAMLLGFTSDTAEKALATFQETFEENKSFFLND,not soluble
12,MGSDKIHHHHHHMNKFNDIIDECDLSFSDWGKNYPRWSSLDAAWWKTFGGDNYLNKYKDGYIVFHREKIKEIARQYKIPSILLASVAHAEAGGMVDYFKYPTLFGRQVVHSYSGWPGKEKILPSPEKTSIGIIAMQIRVVAEIFGKNPSALRNAEATYISICLNKDNFNLTMVARHLYELINYDYPGTDTLNLTDEQFILAGARYNRGVQRSRSDLIRSINAEKDLIEVRDWTSYGRSMLNHREKITKLLYEVTTPPKNSDSN,not soluble
13,MGSDKIHHHHHHMNKLEIENLSKIYGKKVANDKITVTLENGVYGLLGPNGAGKSTLMKQITTLIKPDEGQILYNGEDIFKMDADYRNILGYLPQEFGVYKNFTAKEFLQYIGALKGLRGKYLNSKIGELLDLVGLYDVRNKSIGKFSGGMKRRVGIAQVLLNDPKIIVLDEPTAGLDPQERARFRNLIAKMSRDKIIILSTHIISDIESVAKETIMIKDGKLLMKGTHKDILSHMENKVYNVQVKNECEVDDIQSKYKVVSIQSDINSIVLRIVSEDIPSEDNIQPVQAKFEDVYMFYFDLEDAREV,not soluble
14,MGSDKIHHHHHHMNLQGLLLFDIDGVIRDVAASYRRAIQETVHHYSGWRPSVAEIDALKTEGIWNNDWDASLELLRRDQKSRNQALELPSREQLIEVFSRFYFGGDPNGDPSNWQGFIRNEPLLVNHRFFEELSSLGFAWGFVSGAEPPSARFVLEQRLGLKHPTLIAMGEAPDKPDPTGLLQLASQLAGRRLGQGVPTVAYLGDTVADVRTVINARQQQPEQQWMSLAVAPPHLHGIEQQEARNAYEDRLKQAGADHILSCTTDAIETLKNW,not soluble
15,MGSDKIHHHHHHMNMAQVAVALAKLAGIRKALDLALNDDHKKAGRLPIQNFLIEEVGRYFTGAATQLSILKKELPDLFGDFVEMPVEPKTEMAKTSTEGAAQYRYARSQLEVLARDIDQIFELRANSELAPPLIAAATTRRVFISHGRAPDWREVQAYVEKDIGLPTLELAQEPNQGRTILAKLMEASGQCDSAVIVMTGDDLDAAGQARARENVIHEIGFFQGKYGLGRVCLLHEEGVSIPSNIHGLVYTPFPKGMVSACFGVLTRELKAFY,not soluble
16,MGSDKIHHHHHHMNNKYKNSYIVKEKELVSLSVYNVGFQSCDSLYQWGPGIRDHYLIHYIISGKGRYTVNGSVHTLTPGDAFLVYPNTEVIYQADAQDPWEYTWVGFTGSDAATILRATDFTKAHPYIHSVSNGNEIKRQLMHIYDARGTEFENALEMTGRLYTTLALFVSAATSKPPQNSANSYVQKGIEYISANYSYPITVEDIASYIGLSRSHLFRSFQSILGVSPKEYLTDFRIKQACYLLKHSSLSITAIAGSIGFDNSLYFSKTFHKIKGLSPKEYRSKYKKAQE,not soluble
17,MGSDKIHHHHHHMNNNQTRVLITAIGTMNCTTIISELKKAEEVFYVIGADINGKYSIANSNEVDEFFQFPSVLHDREGYVQYLLNFCKEHNVEVFFCVVDEEVEVVAKHKEDFNAIGITLCLANIDAIITCHNKNLFAEWSEKNIAKYCIKRYENITDVNNDNFPIFIKPVEGRASIGCRKIENMEELWKYASVWDNYIAQEYVTGEIVSVDIVRNRKTEQFEVVQKLELLRNSNGCGIAVEIVDIPEIRQLCCIIADIFNLNGVINAEFFITNKGLKIIEINPRLPAGIEYSCMAGLDVVLNALRIARGEACIFKDIKIGAHYAKRYETYEIK,not soluble
18,MGSDKIHHHHHHMNNTIPRWRGFNLLEAFSIKSTGNFKEEDFLWMAQWDFNFVRIPMCHLLWSDRGNPFIIREDFFEKIDRVIFWGEKYGIHICISLHRAPGYSVNKEVEEKTNLWKDETAQEAFIHHWSFIARRYKGISSTHLSFNLINEPPFPDPQIMSVEDHNSLIKRTITEIRKIDPERLIIIDGLGYGNIPVDDLTIENTVQSCRGYIPFSVTHYKAEWVDSKDFPVPEWPNGWHFGEYWNREKLLEHYLTWIKLRQKGIEVFCGEMGAYNKTPHDVVLKWLEDLLEIFKTLNIGFALWNFRGPFGILDSERKDVEYEEWYGHKLDRKMLELLRKY,soluble
19,MGSDKIHHHHHHMNPDFSYEKKKIEFSSGYIFKGKHYRCSIIKYASLYKNCTKGTENVEIYHFSPRERSVGSILILHGLGTVNIPFLFWMGSHLASAGLQASVMILPGNYTRTASGSTSGKDFFSPDLRRLTAFWEQAVVDTMTTIDLLQQENIWWDNNCLFGYCLGGMVSTIVSAIDKRINDLILMTVGGNIAKIIWQSPVLKSIRLSLRSGSGEEGYLNDEKRLNARFKEDSLAVKKMKSASELLESDLHPLFKIDPLAYARFNDSEKVTMIEALFDKALPVQTRKQLWEAFGRPKRYIVPIGHVSWFPFEYALGKYILKKLGIKEARKKMRLLESTKPTE,not soluble
